Data on five proteins can be found in paper PMC7506556, “Structure and function of bacteriophage CBA120 ORF211 (TSP2), the determinant of phage specificity towards E. coli O157:H7” (Scientific Reports, 2020).

In general, stoichiometry N refers to the number of molecules, sites or subunits per partner or assembly.

Data set [1] deals with the molecule itself. The data set can be described thus: not stated; purified TSP1 site-directed mutants; how the trimeric state was shown is not told.
Data set [2] concerns the molecule itself. Nature of the data set: crystal structure; sitting drops, vapor diffusion, room temperature, 0.8 M ammonium sulfate, 0.1 M HEPES pH 7.0; 1.9 Å; two homotrimers in the asymmetric unit.
Data set [3] deals with the molecule itself. The data set can be described thus: not stated; purified TSP2 site-directed mutants; how the trimeric state was shown is not told.

B1: E456A:E483A TSP1 (enzyme)
chain: MNEMFSQGGKGSTGILTNKQAVARHFGVKQSEVVYFSVGVDLGGYKVIYDKETQRAYSLPVGIASGTTAVSLSTAAVLVHSAGSVDLGSLAVSREEYVTLPGSFDSGSTLNVKNELLTYTDGKYRWDGILPKTVAPGSTPASTGGVGLGAWISVGDASLRTQLANGDGSLIGIHPQGTLNNVLTVRTPEQYNAVGDGIADDTSKLKEMLSDINNVPETLPDAAAVNSYMEQVAVKIDLTKLYRFTETLYIPPGVSIEIPTSNFFTRECKQGLFYDPVDKNTAAISLMVYRKQPDGSYKLNKDVDYYPTGLDIDNGDAITCARKIDINNLNLITAPGVKVGVKWIGGAGCTTKGLSIGENTGSDITTARLPRVGLLQSASWGSIHENLRILYKTQGAVFIDSNGGAAVNNAYISRLGNTNGELEQAVYKPAGFTEVGDVAVTQFAGSEVKFNSPIIAQASFDFVHAGRDTDSYGLFMVDKPHIASSGGKKKHSFYLINTSSNVTLSGVGLSGQDPDLDSMYFLKNCPETARNVVRGQMPISGVKLVRGTGNYPTLVLDCTNMGSQFQFGEVGDIFYIKDVVGVKADTLYIDPVNGNNYNWGTNGTKPIRELTNIAKICQLFRCKSVYLNAGESVITSNTELPMVVFEGPGSLKANSGSSFLIKAGGTLSLIGLSGISTDGGHMFRVSTVEKVNIHTNCSVNAGAAYVVLSEVQGNIEYRQLFYSVNCSKYIGATAGQTIAGIMVKTATRPTGIDAAPVDGNVSLTYKIIES
notes: source: E. coli BL21(DE3), purified similar to wild type TSPs
As to B1, in data set [1], the “stoichiometry N” value was 3.

B2: E456Q:E483Q TSP1 (enzyme)
chain: MNEMFSQGGKGSTGILTNKQAVARHFGVKQSEVVYFSVGVDLGGYKVIYDKETQRAYSLPVGIASGTTAVSLSTAAVLVHSAGSVDLGSLAVSREEYVTLPGSFDSGSTLNVKNELLTYTDGKYRWDGILPKTVAPGSTPASTGGVGLGAWISVGDASLRTQLANGDGSLIGIHPQGTLNNVLTVRTPEQYNAVGDGIADDTSKLKEMLSDINNVPETLPDAAAVNSYMEQVAVKIDLTKLYRFTETLYIPPGVSIEIPTSNFFTRECKQGLFYDPVDKNTAAISLMVYRKQPDGSYKLNKDVDYYPTGLDIDNGDAITCARKIDINNLNLITAPGVKVGVKWIGGAGCTTKGLSIGENTGSDITTARLPRVGLLQSASWGSIHENLRILYKTQGAVFIDSNGGAAVNNAYISRLGNTNGELEQAVYKPAGFTEVGDVAVTQFAGSEVKFNSPIIQQASFDFVHAGRDTDSYGLFMVDKPHIQSSGGKKKHSFYLINTSSNVTLSGVGLSGQDPDLDSMYFLKNCPETARNVVRGQMPISGVKLVRGTGNYPTLVLDCTNMGSQFQFGEVGDIFYIKDVVGVKADTLYIDPVNGNNYNWGTNGTKPIRELTNIAKICQLFRCKSVYLNAGESVITSNTELPMVVFEGPGSLKANSGSSFLIKAGGTLSLIGLSGISTDGGHMFRVSTVEKVNIHTNCSVNAGAAYVVLSEVQGNIEYRQLFYSVNCSKYIGATAGQTIAGIMVKTATRPTGIDAAPVDGNVSLTYKIIES
notes: as for B1
Take B2: the “stoichiometry N” value in data set [1] was 3.

B3: D313N:E456Q:E483Q TSP1 (enzyme)
chain: MNEMFSQGGKGSTGILTNKQAVARHFGVKQSEVVYFSVGVDLGGYKVIYDKETQRAYSLPVGIASGTTAVSLSTAAVLVHSAGSVDLGSLAVSREEYVTLPGSFDSGSTLNVKNELLTYTDGKYRWDGILPKTVAPGSTPASTGGVGLGAWISVGDASLRTQLANGDGSLIGIHPQGTLNNVLTVRTPEQYNAVGDGIADDTSKLKEMLSDINNVPETLPDAAAVNSYMEQVAVKIDLTKLYRFTETLYIPPGVSIEIPTSNFFTRECKQGLFYDPVDKNTAAISLMVYRKQPDGSYKLNKDVDYYPTGLDINNGDAITCARKIDINNLNLITAPGVKVGVKWIGGAGCTTKGLSIGENTGSDITTARLPRVGLLQSASWGSIHENLRILYKTQGAVFIDSNGGAAVNNAYISRLGNTNGELEQAVYKPAGFTEVGDVAVTQFAGSEVKFNSPIIQQASFDFVHAGRDTDSYGLFMVDKPHIQSSGGKKKHSFYLINTSSNVTLSGVGLSGQDPDLDSMYFLKNCPETARNVVRGQMPISGVKLVRGTGNYPTLVLDCTNMGSQFQFGEVGDIFYIKDVVGVKADTLYIDPVNGNNYNWGTNGTKPIRELTNIAKICQLFRCKSVYLNAGESVITSNTELPMVVFEGPGSLKANSGSSFLIKAGGTLSLIGLSGISTDGGHMFRVSTVEKVNIHTNCSVNAGAAYVVLSEVQGNIEYRQLFYSVNCSKYIGATAGQTIAGIMVKTATRPTGIDAAPVDGNVSLTYKIIES
notes: as for B1
Regarding B3, the “stoichiometry N” value in data set [1] came to 3.

B4: bacteriophage CBA120 ORF211 (TSP2), wild type (enzyme, UniProt G3M190 1-921, looked up)
chain: MTRNVEELFGGVITAPHQIPFTYKSNVGGETFLSLPFYPVTGVVTINGGMQVPLDNFEIEGNTLNLGRALSKGDVVYCLFDKILSPEDTAKGIRIYKFQAVGGETEFTPDFTSYGVQSLYIGGEYKTPEIEYSYDSTTGKVSLQTALSAGVWVVAEMSVKQPNISPAFDRSIQEIARSANVKDSEVIVSTDTISLLDGKKVVYDIATQTSYGLPTIPDGSVISSVSAGKLNYNPGDVQVDLLPLEDSFINVINTLGRNDGAKYIGECHSVADLRNTEPTMDGQRIILKQHTAGTLLGGGVFRALIDGTGKTDNNGTVIKTVGGAAWLRVNADRVNPFMFGALGGSNDDTIPVQSCVDSGKATQLTDAHYVSNIQLKYNTSSIYGSGLHYSRLHQLPSATGNCITIKDTCSLIVLDAFGVYGTGAQQGTSFTAGTTGIYVETPSGLSADYPFHTTADPRRDLCISKVHIAGFDEYGLNIDSGNFSVTTDSLLVNHINQVGVRCATTDWTWTNIQVNTCGKQCLVLDGCGNGRIIGGKFIWANWQPYGTVGQFPGITINNSQNMVINGIEVQDCGGNGIEISESYSISMNGLNTNRNGINANNTFYNIVFNKSDAVINGFVGLNYAANSGSGANSSAGNFQFLSNDCSVTINGVVETGYMGINFIGDNNIINPTNSDLSINGLVNYSKTGLQTMNETPTFDGVSTTPVYVSVPSSVGQVNGLRLSQANKDKLLYSRTAGPEGITMAAVIVPTISGAEVFNFMAIGSGFSDTSNSLHLQLVIDASGKQTIALLLGGDGTTQILSGDLPNDLKLQSGVPYHIAIGAKPGYFWWSILNIQTGKRIRRSFRGAYLAVPFNSIFGLTSSLTFFSDSNAGGDACSGVGAKVYVGMFSSENDYVASRYYNLINPVDPTKLISYRILDSSI
notes: 921-residue polypeptide chain; gene codon optimized for E. coli; residues 1-168 have no electron density in the crystal; Calculated monomer mass 99,054 Da with the 6X-His tag; also called tailspike protein 2; wild-type TSP2; source: E. coli Rosetta-gami 2 (pBAD24), purified (Ni-NTA); not shown: 6X-His, C-terminal, kept
For the protein B4, the “stoichiometry N” value in data set [2] was found to be 3.

B5: TSP2 D506N:D571N:Y623A mutant (enzyme, UniProt G3M190 1-921, looked up)
chain: MTRNVEELFGGVITAPHQIPFTYKSNVGGETFLSLPFYPVTGVVTINGGMQVPLDNFEIEGNTLNLGRALSKGDVVYCLFDKILSPEDTAKGIRIYKFQAVGGETEFTPDFTSYGVQSLYIGGEYKTPEIEYSYDSTTGKVSLQTALSAGVWVVAEMSVKQPNISPAFDRSIQEIARSANVKDSEVIVSTDTISLLDGKKVVYDIATQTSYGLPTIPDGSVISSVSAGKLNYNPGDVQVDLLPLEDSFINVINTLGRNDGAKYIGECHSVADLRNTEPTMDGQRIILKQHTAGTLLGGGVFRALIDGTGKTDNNGTVIKTVGGAAWLRVNADRVNPFMFGALGGSNDDTIPVQSCVDSGKATQLTDAHYVSNIQLKYNTSSIYGSGLHYSRLHQLPSATGNCITIKDTCSLIVLDAFGVYGTGAQQGTSFTAGTTGIYVETPSGLSADYPFHTTADPRRDLCISKVHIAGFDEYGLNIDSGNFSVTTDSLLVNHINQVGVRCATTNWTWTNIQVNTCGKQCLVLDGCGNGRIIGGKFIWANWQPYGTVGQFPGITINNSQNMVINGIEVQNCGGNGIEISESYSISMNGLNTNRNGINANNTFYNIVFNKSDAVINGFVGLNAAANSGSGANSSAGNFQFLSNDCSVTINGVVETGYMGINFIGDNNIINPTNSDLSINGLVNYSKTGLQTMNETPTFDGVSTTPVYVSVPSSVGQVNGLRLSQANKDKLLYSRTAGPEGITMAAVIVPTISGAEVFNFMAIGSGFSDTSNSLHLQLVIDASGKQTIALLLGGDGTTQILSGDLPNDLKLQSGVPYHIAIGAKPGYFWWSILNIQTGKRIRRSFRGAYLAVPFNSIFGLTSSLTFFSDSNAGGDACSGVGAKVYVGMFSSENDYVASRYYNLINPVDPTKLISYRILDSSI
notes: Made by Q5 site-directed mutagenesis of the TSP2 plasmid; source: E. coli BL21(DE3), purified similar to wild type TSPs
In the case of B5, the “stoichiometry N” value in data set [3] is 3.
